# Test results from patent publication US20040248767A1 (AUTOGEN RESEARCH, published 2004).
# How the values were obtained:
# [1] = biological target: T1, GST alone control protein (UniProt P08515 1-218 = GST); assay: SPR (Biacore J), control injected over SAA on CM5 chip
# T1 construct: Negative control; also called GST control protein; control GST alone protein
# Procedure: (§1) The 96% pure SAA was covalently bound to the biospecific sensor surface of the Biacore J (biacore, Sweden). This surface consists of a gold-coated glass slide mounted in a plastic holder (the sensor chip). The CM5 chip (biacore, Sweden) was used for all experiments and this chip is covered with a hydrophilic matrix, consisting of carboxymethylated dextran to which the SAA was covalently bound. The tanis protein fragments were injected into the system and flowed across this chip and sensorgrams were recorded in real-time.
# (§2) The interaction of the proteins is indicated by the failure of the response to return to the baseline RU value. The difference between the values post injection (points 1, 3, 5, 7) indicates a binding event between full length tanis and SAA. The difference between the injection point and the max RU indicates the affinity between the two proteins. […] These sensorgrams indicate a potentially high affinity binding with a rapid dissociation of the binding event. A series of controls have also been injected across the SAA chip, these were GST alone, BSA (NEB, USA) alone and buffer alone.
# [2] = biological target: T2, BSA (NEB, USA) (UniProt P02769 25-607); assay: as above
# T2 construct: Negative control
# Procedure: as §1, §2
# T2 sequence (P02769 25-607 limits assumed): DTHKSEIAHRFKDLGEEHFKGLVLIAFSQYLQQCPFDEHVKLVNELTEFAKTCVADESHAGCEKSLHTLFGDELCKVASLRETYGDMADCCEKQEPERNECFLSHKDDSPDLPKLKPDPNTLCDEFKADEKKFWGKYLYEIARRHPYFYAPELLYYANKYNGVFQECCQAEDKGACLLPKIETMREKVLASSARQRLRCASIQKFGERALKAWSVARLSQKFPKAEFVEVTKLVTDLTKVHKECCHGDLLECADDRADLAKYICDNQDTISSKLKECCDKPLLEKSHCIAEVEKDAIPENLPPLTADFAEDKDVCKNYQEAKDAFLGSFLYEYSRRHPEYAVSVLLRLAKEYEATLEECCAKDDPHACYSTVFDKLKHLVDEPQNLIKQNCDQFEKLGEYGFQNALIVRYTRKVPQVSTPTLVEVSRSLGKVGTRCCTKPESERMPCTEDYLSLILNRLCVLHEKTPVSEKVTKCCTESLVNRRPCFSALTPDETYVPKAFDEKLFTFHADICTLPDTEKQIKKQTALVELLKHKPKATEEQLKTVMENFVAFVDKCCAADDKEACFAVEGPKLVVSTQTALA
# T1 sequence (P08515 whole entry): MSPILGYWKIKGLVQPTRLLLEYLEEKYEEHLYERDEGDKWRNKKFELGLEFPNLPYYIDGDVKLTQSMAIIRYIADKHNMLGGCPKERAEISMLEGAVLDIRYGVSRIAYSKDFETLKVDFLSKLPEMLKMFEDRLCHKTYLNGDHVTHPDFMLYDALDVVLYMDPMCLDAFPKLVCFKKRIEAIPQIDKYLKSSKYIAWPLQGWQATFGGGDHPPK
binder,measurement,setting,value
"Serum amyloid A (SAA) purified from human sera / human plasma (Trace Scientific) (ligand, UniProt P0DJI8 19-122, looked up, also called human plasma SAA) RSFFSFLGEAFDGARDMWRAYSDMREANYIGSDKYFHARGNYDAAKRGPGGAWAAEVITDARENIQRFFGHGAEDSLADQAANEWGRSGKDPNHFRPAGLPEKY",binding result,[1],no binding
same,binding result,[2],no binding
